The term Kd denotes the concentration at which binding is half-saturated. Low readings indicate tighter binding, high ones weaker binding.

These results are taken from publication PMC5382721 (Cell reports, 2017).

Experiment [1] concerns the target GST-eIF3c-E_(87–163) (yeast (S. cerevisiae)) (UniProt P32497). As to the kind of experiment: pull-down.
For experiment [2], the target named is GST-eIF3c-G_(1–58) (yeast (S. cerevisiae)) (UniProt P32497). As to the kind of experiment: pull-down.
The target of experiment [3] is eIF1 (yeast (S. cerevisiae)) (UniProt P32911). Nature of the experiment: ITC. A general note: Isothermal titration calorimetry measures the heat released or taken up as one component is titrated into another.
Chain of eIF1 (yeast (S. cerevisiae)) (P32911 whole entry): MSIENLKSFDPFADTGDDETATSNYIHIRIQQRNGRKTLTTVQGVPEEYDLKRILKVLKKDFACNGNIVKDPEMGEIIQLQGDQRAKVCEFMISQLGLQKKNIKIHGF
Another experiment has as its target eIF1 (yeast (S. cerevisiae), UniProt P32911 1-108). As to the kind of experiment: ITC.
The next experiment deals with eIF1-K37E (yeast (S. cerevisiae), UniProt P32911 1-108, K37E). Nature of the experiment: ITC.
Chain of eIF1-K37E (P32911 whole entry K37E): as the sequence (P32911 whole entry) above, with K37E counted along it
The target of the next experiment is eIF1-L96P (yeast (S. cerevisiae), UniProt P32911 1-108, L96P). Nature of the experiment: ITC.
Chain of eIF1-L96P (P32911 whole entry L96P): as the sequence (P32911 whole entry) above, with L96P counted along it

A value given as a limit tells only on which side of the number the result lay.

Chain of eIF1 (P32911 whole entry): as the sequence (P32911 whole entry) above

Regarding “eIF1 (from UniProt P32911 1-108) (natural protein)”, the amount of eIF1 bound relative to that bound to GST-eIF3c-F in experiment [1] and in experiment [2] was less than 10% throughout.
In experiment [3], “eIF3c-E_(87–163) (from UniProt P32497 87-163) (domain or fragment)” returned a Kd of more than 100 µM and a stoichiometry N (eIF3c molecules bound per eIF1 molecule) of 0.4.

B1: eIF3c-C_(36–87) (domain or fragment, yeast (S. cerevisiae), UniProt P32497 36-87, looked up)
chain: SESELDQESDDSFFNESESESEADVDSDDSDAKPYGPDWFKKSEFRKQGGGS
The molecule B1 yielded a Kd with eIF1 of approximately 1000 nM.

B2: eIF3c-F_(1–87) (domain or fragment, yeast (S. cerevisiae), UniProt P32497 1-87, looked up)
chain: MSRFFSSNYEYDVASSSSEEDLLSSSEEDLLSSSSSESELDQESDDSFFNESESESEADVDSDDSDAKPYGPDWFKKSEFRKQGGGS
On to B2, for which the Kd with eIF1 was approximately 1000 nM.

B3: eIF3c-D_(58–163) (domain or fragment, yeast (S. cerevisiae), UniProt P32497 58-163, looked up)
chain: ADVDSDDSDAKPYGPDWFKKSEFRKQGGGSNKFLKSSNYDSSDEESDEEDGKKVVKSAKEKLLDEMQDVYNKISQAENSDDWLTISNEFDLISRLLVRAQQQNWGT
As to B3, in the experiment with eIF1, the Kd is approximately 8000 nM and the “stoichiometry N” value is 1 eIF3c molecules bound per eIF1 molecule.

B4: eIF3c-B_(36–163) (domain or fragment, yeast (S. cerevisiae), UniProt P32497 36-163, looked up)
chain: SESELDQESDDSFFNESESESEADVDSDDSDAKPYGPDWFKKSEFRKQGGGSNKFLKSSNYDSSDEESDEEDGKKVVKSAKEKLLDEMQDVYNKISQAENSDDWLTISNEFDLISRLLVRAQQQNWGT
For B4, the “fold reduction of binding against WT eIF1” value with eIF1-K37E is 4 fold. In addition, the “fold reduction of affinity against WT eIF1” value in the experiment with eIF1-L96P was determined as 10 fold.
